These results are taken from patent publication US20230112123A1 (IMMUNEONCO BIOPHARMACEUTICALS SHANGHAI, published 2023).

Positions count from the first letter of the chain named. Numbers in names are those of the source.

In assay [1] the target is T1, human CD70 (human, UniProt P32970 1-193).
T1 construct: whole, on cells; Stated as human for the CHO transfectants; also called cell surface CD70s
T1 sequence (looked up): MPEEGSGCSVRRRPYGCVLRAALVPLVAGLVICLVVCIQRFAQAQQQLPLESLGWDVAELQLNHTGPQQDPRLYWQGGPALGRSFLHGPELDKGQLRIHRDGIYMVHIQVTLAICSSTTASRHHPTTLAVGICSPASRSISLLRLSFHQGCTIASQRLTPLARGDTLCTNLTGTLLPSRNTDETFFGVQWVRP
As to the kind of experiment: flow cytometry on CHO cells expressing human CD70. Here is the method: (§1) Cells were washed with 1% BSA-PBS once, and then incubated with 100 μl 1:500 diluted FITC-conjugated secondary antibody against human IgG-Fc (Cat #F9512, Sigma) at 4° C. for 45 min. Cells were washed once with 1% BSA-PBS, re-suspended in 200 μl 1% BSA-PBS, and then subject to FACS analysis using a flow cytometer (Merck Millipore, Guava® easyCyte 5HT).
(A flow cytometer gives signals particle by particle.)

Assay [2] has as its target T1, human CD70. In words: flow cytometry on CD70+ CHO cells. On the procedure:
as §1

For assay [3], the target named is T1, human CD70. In words: flow cytometry on CD47+CD70+ Raji cells.

B1: IMM40C (antibody, human IgG1, kappa, V domains shown)
VH: QVQLQQSGPEVVRPGVSVKISCKGSGYTFTDSALHWVKQSHAKSLEWIGVISTYDGDTDYNQKFKGKATMTVDKSSSTAYMELARLTSEDSAIYYCARRGYYDYDWFPYWGQGTLVTVSA
VL: DIVLTQSPASLAISLGQRATISCRASKSVSASGYSFLHWYQQKPGQPPKLLIYLASNLESGVPARFSGSGSGTDFTLNIHPVEEEDAATFYCQHSRELPPTFGGGTKLEIKR
notes: Chimeric IgG: mouse variable regions with human IgG1 and human kappa constant regions; expressed in CHO-S cells
Consider B1, for which the binding result in the assay with human CD70 [1] is given as “binds”.

B2: IMM40H (antibody, human IgG1, kappa, V domains shown)
VH: QVQLVQSGAEVKKPGASVKVSCKVSGYTFTDSALHWVRQAPGKGLEWMGVISTYDGDTDYNQKFKGRVTMTEDTSTDTAYMELSSLRSEDTAVYYCARRGYYDYDWFPYWGQGTLVTVSA
VL: DIVLTQSPASLAVSPGQRATITCRASKSVSASGYSFLHWYQQKPGQPPKLLIYLASNLESGVPARFSGSGSGTDFTLTINPVEANDTANYYCQHSRELPPTFGGGTKVEIKR
notes: Humanized IgG1/kappa; X=N for IMM40H; N85 is a glycosylation site in the light chain variable region; also called IMM4OH
Take B2: the binding result in the assay with human CD70 [2] is given as “binds”.

B3: IMM40M (antibody, human IgG1, kappa, V domains shown)
VH: B2 VH
VL: B2 VL with N85E
notes: IMM40H with N85E in the light chain variable region, which removes a glycosylation site; also called IMM4OM
For B3, the binding result with human CD70 [2] was “binds”.

B4: Cusatuzumab (antibody, human IgG1, lambda, V domains shown)
VH: EVQLVESGGGLVQPGGSLRLSCAASGFTFSVYYMNWVRQAPGKGLEWVSDINNEGGTTYYADSVKGRFTISRDNSKNSLYLQMNSLRAEDTAVYYCARDAGYSNHVPIFDSWGQGTLVTVSS
VL: QAVVTQEPSLTVSPGGTVTLTCGLKSGSVTSDNFPTWYQQTPGQAPRLLIYNTNTRHSGVPDRFSGSILGNKAALTITGAQADDEAEYFCALFISNPSVEFGGGTQLTVLG
notes: Anti-CD70 IgG used as comparator
B4: the binding result with human CD70 [3] was “binds”.
